From PMC10588934

Target: dopamine receptor D1 fused to LgBiT (UniProt P21728)
Assay: split reporter

Sequence of UniProt P21728 (P21728 whole entry, the tested form may be a part): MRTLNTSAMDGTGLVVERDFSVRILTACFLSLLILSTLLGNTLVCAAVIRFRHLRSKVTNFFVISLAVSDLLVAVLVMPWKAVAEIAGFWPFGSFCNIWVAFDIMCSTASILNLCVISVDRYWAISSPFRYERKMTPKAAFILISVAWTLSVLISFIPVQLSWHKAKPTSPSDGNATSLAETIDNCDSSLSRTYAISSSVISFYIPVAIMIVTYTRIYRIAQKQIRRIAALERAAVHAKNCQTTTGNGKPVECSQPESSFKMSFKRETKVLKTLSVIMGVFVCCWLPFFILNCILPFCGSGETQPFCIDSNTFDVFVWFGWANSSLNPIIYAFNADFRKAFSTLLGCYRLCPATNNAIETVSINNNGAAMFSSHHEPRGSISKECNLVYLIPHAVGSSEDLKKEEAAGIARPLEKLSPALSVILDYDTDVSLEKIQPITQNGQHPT

DDR (luminescence with drug / without drug): 1.6
Substance: SmBiT-miniGs (domain or fragment)
